What all share (assay): SPR
The target in assay [1] is full-length UmuD, component of DNA polymerase V, from Acinetobacter baumannii (Acinetobacter baumannii ATCC 17978).
The target in assay [2] is UmuDAb C-terminal domain (CTD) (Acinetobacter baumannii ATCC 17978).
In assay [3] the target is full length UmuDAb transcription repressor from Acinetobacter baumannii (Acinetobacter baumannii ATCC 17978).

For “DdrR protein from Acinetobacter baumannii (natural protein)”, the dissociation constant (Kd) is 294 nM in assay [1], 106 nM in assay [2] and 83.3 nM in assay [3].

For the origin of these results see paper doi:10.1101/2020.03.20.000240.
